Laboratory results published in paper PMC7840130 (Science Advances, 2021).
Read-outs that look alike come from different tables or passages of the source.

How the values were obtained:
[1] = target: BcsQ (in the Bcs macrocomplex) (E. coli 1094) (UniProt P37655); assay: cryo-EM structure
[2] = target: BcsQ^His (E. coli 1094) (UniProt P37655); assay: crystal structure
[3] = target: T1, BcsA^HA-FLAG (in the Bcs macrocomplex) (E. coli 1094, UniProt P37653 1-872); assay: cryo-EM structure
T1 sequence (looked up): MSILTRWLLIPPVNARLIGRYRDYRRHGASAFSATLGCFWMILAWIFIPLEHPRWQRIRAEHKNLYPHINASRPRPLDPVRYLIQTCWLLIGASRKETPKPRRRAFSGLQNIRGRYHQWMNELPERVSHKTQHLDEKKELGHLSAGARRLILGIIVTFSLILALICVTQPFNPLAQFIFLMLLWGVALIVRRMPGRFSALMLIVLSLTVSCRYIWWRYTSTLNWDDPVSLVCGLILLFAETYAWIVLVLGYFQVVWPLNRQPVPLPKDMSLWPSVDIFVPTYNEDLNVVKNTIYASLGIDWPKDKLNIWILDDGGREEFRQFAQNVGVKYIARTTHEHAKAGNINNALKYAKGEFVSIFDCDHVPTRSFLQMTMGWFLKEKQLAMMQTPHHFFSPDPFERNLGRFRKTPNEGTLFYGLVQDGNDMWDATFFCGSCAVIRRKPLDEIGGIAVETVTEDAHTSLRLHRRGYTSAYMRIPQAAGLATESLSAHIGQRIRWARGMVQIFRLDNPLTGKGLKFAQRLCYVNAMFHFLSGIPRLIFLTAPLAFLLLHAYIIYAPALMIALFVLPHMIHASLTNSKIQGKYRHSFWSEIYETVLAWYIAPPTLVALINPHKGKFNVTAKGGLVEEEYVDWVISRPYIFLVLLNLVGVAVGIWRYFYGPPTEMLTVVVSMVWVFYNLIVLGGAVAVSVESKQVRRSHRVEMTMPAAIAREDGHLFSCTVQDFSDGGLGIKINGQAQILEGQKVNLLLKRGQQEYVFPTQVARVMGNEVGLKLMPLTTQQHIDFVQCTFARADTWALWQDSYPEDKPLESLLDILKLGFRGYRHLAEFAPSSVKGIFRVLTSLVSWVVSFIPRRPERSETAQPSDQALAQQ

[4] = target: the molecule itself; assay: cryo-EM structure
[5] = target: the molecule itself; assay: cryo-EM structure; remark: listed apart in the source

Question: With “BcsQ (in the Bcs macrocomplex) (from UniProt P37655 1-242) (natural protein)” as the molecule, how does the stoichiometry N [1] read?
Answer: 2

Question: With “BcsQ^His (from UniProt P37655 1-242) (natural protein)” as the molecule, how does the stoichiometry N [2] read?
Answer: 2

B1: BcsB (in the Bcs macrocomplex) (natural protein, E. coli 1094, UniProt P37652 26-779, looked up)
chain: TPATQPLINAEPAVAAQTEQNPQVGQVMPGVQGADAPVVAQNGPSRDVKLTFAQIAPPPGSMVLRGINPNGSIEFGMRSDEVVTKAMLNLEYTPSPSLLPVQSQLKVYLNDELMGVLPVTKEQLGKKTLAQMPINPLFISDFNRVRLEFVGHYQDVCEKPASTTLWLDVGRSSGLDLTYQTLNVKNDLSHFPVPFFDPSDNRTNTLPMVFAGAPDVGLQQASAIVASWFGSRSGWRGQNFPVLYNQLPDRNAIVFATNDKRPDFLRDHPAVKAPVIEMINHPQNPYVKLLVVFGRDDKDLLQAAKGIAQGNILFRGESVVVNEVKPLLPRKPYDAPNWVRTDRPVTFGELKTYEEQLQSSGLEPAAINVSLNLPPDLYLMRSTGIDMDINYRYTMPPVKDSSRMDISLNNQFLQSFNLSSKQEANRLLLRIPVLQGLLDGKTDVSIPALKLGATNQLRFDFEYMNPMPGGSVDNCITFQPVQNHVVIGDDSTIDFSKYYHFIPMPDLRAFANAGFPFSRMADLSQTITVMPKAPNEAQMETLLNTVGFIGAQTGFPAINLTVTDDGSTIQGKDADIMIIGGIPDKLKDDKQIDLLVQATESWVKTPMRQTPFPGIVPDESDRAAETRSTLTSSGAMAAVIGFQSPYNDQRSVIALLADSPRGYEMLNDAVNDSGKRATMFGSVAVIRESGINSLRVGDVYYVGHLPWFERVWYALANHPILLAVLAAISVILLAWVLWRLLRIISRRRLNPDNE
Question: Does B1 bind [3]?
Answer: binds

Question: What about the “stoichiometry N” value [4] of the same molecule?
Answer: ≤ 6

B2: full-length E. coli BcsB^His (natural protein, E. coli 1094, UniProt P37652 26-779, looked up)
chain: B1 chain
Question: With B2 as the molecule, how does the “stoichiometry N” value [5] read?
Answer: 8
